Measured values published in PMC8582077.

B1: MF MERS aptamer (3WJ of MERSapt-3WJa, MB/3WJb, NH2/3WJc) (structured_DNA)
DNA 1: TGACACCGTACCTGCTCTGCACTTCCTTCACCAGAAACCTGCACATCTTCGCCGCGTGAAGCACGCCAAGGGACTATTTGCCATGTGTATGTGGG
DNA 2: TTTGGGTAGGGCGGGTTGGGCCCACATACTTTGTTGATCC
DNA 3: GGATCAATCATGGCAA
modifications: 5' NH2 on S6
B2: S-12 aptamer (MERS aptamer-b) (ssDNA)
DNA: TGACACCGTACCTGCTCTCCGACCCATCTAGCACTTCACACACGCCCGATCGGATTAGTAAGCACGCCAAGGGACTAT
B3: S-19 aptamer (ssDNA)
DNA: TGACACCGTACCTGCTCTGCACTTCCTTCACCAGAAACCTGCACATCTTCGCCGCGTGAAGCACGCCAAGGGACTAT

Assays:
myoglobin = myoglobin (horse, UniProt P68082 2-154); test: EMSA
[1] = target: MERS-CoV Spike S1 protein (Middle East respiratory syndrome …, UniProt K9N5Q8 18-751); test: bead-based fluorescence binding assay
Chain of MERS-CoV Spike S1 protein (K9N5Q8 18-751): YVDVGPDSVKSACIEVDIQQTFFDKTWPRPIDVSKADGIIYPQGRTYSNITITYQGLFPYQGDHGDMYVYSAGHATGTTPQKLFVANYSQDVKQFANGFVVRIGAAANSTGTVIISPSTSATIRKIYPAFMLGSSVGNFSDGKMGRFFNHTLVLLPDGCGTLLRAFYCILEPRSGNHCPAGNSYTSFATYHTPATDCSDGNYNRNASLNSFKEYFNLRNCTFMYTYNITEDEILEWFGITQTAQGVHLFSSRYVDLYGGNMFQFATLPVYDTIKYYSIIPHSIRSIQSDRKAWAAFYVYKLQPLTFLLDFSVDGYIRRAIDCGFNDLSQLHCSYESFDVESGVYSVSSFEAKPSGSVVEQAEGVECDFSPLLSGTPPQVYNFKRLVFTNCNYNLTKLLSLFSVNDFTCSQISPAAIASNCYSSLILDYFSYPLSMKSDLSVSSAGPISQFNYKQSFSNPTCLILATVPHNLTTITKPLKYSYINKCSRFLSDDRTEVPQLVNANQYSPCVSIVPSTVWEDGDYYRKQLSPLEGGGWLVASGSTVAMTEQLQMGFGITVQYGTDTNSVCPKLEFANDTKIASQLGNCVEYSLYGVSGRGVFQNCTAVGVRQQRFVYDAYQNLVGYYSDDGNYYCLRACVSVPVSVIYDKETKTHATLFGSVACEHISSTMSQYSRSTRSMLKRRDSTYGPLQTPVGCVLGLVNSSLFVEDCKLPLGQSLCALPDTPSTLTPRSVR

Chain of myoglobin (P68082 2-154): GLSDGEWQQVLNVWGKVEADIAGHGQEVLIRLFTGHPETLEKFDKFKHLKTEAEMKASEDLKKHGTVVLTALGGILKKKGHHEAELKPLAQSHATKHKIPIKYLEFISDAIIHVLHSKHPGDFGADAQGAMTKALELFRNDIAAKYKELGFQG

Binder | binding result (myoglobin) | Kd [1] [nM]
B1 | no binding | –
B2 | – | 287 ± 17.7
B3 | – | 112 ± 3.89
